Reference: patent US20190062453A1 (Hoffmann-La Roche, published 2019)
Read-outs that look alike come from different tables or passages of the source.

Legend:
human FAP on cells = target: T1, human FAP on cells (human, UniProt Q12884 1-760); experiment: FACS on recombinant HEK293 cells expressing human FAP
T1 construct: whole, on cells; also called human FAP expressed on recombinant HEK293 cells; FAP on GM05389 fibroblasts

[1] = target: T2, Human FAP ectodomain + poly-lys-tag + his6-tag (human, UniProt Q12884 27-760); experiment: SPR (Biacore), bispecific antibody bound to immobilised human DR5-Fc, recombinant human FAP as second analyte (simultaneous binding)
T2 construct: also called recombinant soluble human FAP; hFAP

[2] = target: murine FAP on recombinant 3T3 cells (murine, UniProt P97321 1-761); experiment: cell-based or functional assay
[3] = target: T3, cynomolgus DR5 in the TagLite assay (cynomolgus); experiment: TagLite TR-FRET on cells
T3 construct: also called cy DR5 (TagLite)

[4] = target: T2, Human FAP ectodomain + poly-lys-tag + …; experiment: SPR, bispecific captured by anti human IgG (Fc), human FAP 5 µg/ml
[5] = target: T4, human DR5 (recombinant, fusion format not stated for the assay) (human, UniProt O14763 56-207); experiment: SPR (Biacore), 2+2 over immobilised DR5 ECD
T4 construct: all antigen constructs carry ECD aa 56-207; also called hu DR5; huDR5

[6] = target: T5, Cynom. DR5 (ECD)-AcTev-Fc-Avi (cynomolgus); experiment: SPR (Biacore), 2+2 over immobilised DR5 ECD
T5 construct: also called cynomolgus DR5; cy DR5

[7] = target: T4, human DR5 (recombinant, fusion format …); experiment: SPR (Biacore), affinity, 2+2 captured and DR5 injected
[8] = target: T5, Cynom. DR5 (ECD)-AcTev-Fc-Avi; experiment: as above
[9] = target: T6, Murine FAP ectodomain + poly-lys-tag + his6-tag (murine, UniProt P97321 27-761); experiment: SPR (Biacore), bispecific antibody bound to immobilised human DR5-Fc, recombinant soluble murine FAP as second analyte (simultaneous binding)
T6 construct: also called recombinant soluble murine FAP

[10] = target: T2, Human FAP ectodomain + poly-lys-tag + …; experiment: SPR (Biacore), bispecific antibody bound to immobilised human DR5-Fc, recombinant soluble human FAP as second analyte (simultaneous binding)
[11] = target: T7, Hu DR5 (ECD)-AcTev-Fc-Avi (human); experiment: SPR (Biacore), biotinylated human DR5-Fc on a streptavidin chip, bispecific antibody as first analyte
T7 construct: dimeric Fc fusion, biotinylated on the Avi tag where immobilised on streptavidin; also called human DR5-Fc; huDR5Fc

[12] = target: T6, Murine FAP ectodomain + poly-lys-tag + …; experiment: SPR (Biacore), bispecific antibody bound to immobilised human DR5-Fc, recombinant soluble murine FAP as second analyte (simultaneous binding); remark: listed apart in the source
[13] = target: T2, Human FAP ectodomain + poly-lys-tag + …; experiment: SPR (Biacore), bispecific antibody bound to immobilised human DR5-Fc, recombinant soluble human FAP as second analyte (simultaneous binding); remark: listed apart in the source
[14] = target: T7, Hu DR5 (ECD)-AcTev-Fc-Avi; experiment: SPR (Biacore), biotinylated human DR5-Fc on a streptavidin chip, bispecific antibody as first analyte; remark: listed apart in the source

Binder	binding result (human FAP on cells)	Avidity [3]	FAP [RU max] [4]	Cell Death Detection ELISA, DLD-1 cells with 3T3 cells expressing murine FAP [2]	further results
4G8 IgG (antibody, V domains shown, also called FAP (4G8) IgG molecule; parental 4G8 IgG) VH: not shown VL: EIVLTQSPGTLSLSPGERATLSCRASQSVSRSYLAWYQQKPGQAPRLLIIGASTRATGIPDRFSGSGSGTDFTLTISRLEPEDFAVYYCQQGQVIPPTFGQGTKVEIK	binds				
DR5(5E11)-28H1 VHCL 2 + 2 (bispecific antibody, human IgG1, kappa, also called DR5TAA-0030) heavy: not shown light: EIVLTQSPGTLSLSPGERATLSCRASQSVSSSYLAWYQQKPGQAPRLLIYGASSRATGIPDRFSGSGSGTDFTLTISRLEPEDFAVYYCQQGTTHPITFGQGTKVEIKRTVAAPSVFIFPPSDEQLKSGTASVVCLLNNFYPREAKVQWKVDNALQSGNSQESVTEQDSKDSTYSLSSTLTLSKADYEKHKVYACEVTHQGLSSPVTKSFNRGEC EIVLTQSPGTLSLSPGERATLSCRASQSVSRSYLAWYQQKPGQAPRLLIIGASTRATGIPDRFSGSGSGTDFTLTISRLEPEDFAVYYCQQGQVIPPTFGQGTKVEIKSSASTKGPSVFPLAPSSKSTSGGTAALGCLVKDYFPEPVTVSWNSGALTSGVHTFPAVLQSSGLYSLSSVVTVPSSSLGTQTYICNVNHKPSNTKVDKKVEPKSCD		0.4 nM		10 fold	binding result [1]: binds
DR5TAA-0077 (bispecific antibody, human IgG1, kappa, also called format C) heavy: not shown not shown light: EIVLTQSPGTLSLSPGERATLSCRASQSVSRSYLAWYQQKPGQAPRLLIIGASTRATGIPDRFSGSGSGTDFTLTISRLEPEDFAVYYCQQGQVIPPTFGQGTKVEIKRTVAAPSVFIFPPSDEQLKSGTASVVCLLNNFYPREAKVQWKVDNALQSGNSQESVTEQDSKDSTYSLSSTLTLSKADYEKHKVYACEVTHQGLSSPVTKSFNRGEC			41.9 RU		
DR5TAA-0081 (bispecific antibody, human IgG1, kappa, L234A L235A, also called format F) heavy: not shown light: EIVLTQSPGTLSLSPGERATLSCRASQSVSSSYLAWYQQKPGQAPRLLIYGASSRATGIPDRFSGSGSGTDFTLTISRLEPEDFAVYYCQQGTTHPITFGQGTKVEIKRTVAAPSVFIFPPSDEQLKSGTASVVCLLNNFYPREAKVQWKVDNALQSGNSQESVTEQDSKDSTYSLSSTLTLSKADYEKHKVYACEVTHQGLSSPVTKSFNRGEC EVQLLESGGGLVQPGGSLRLSCAASGFTFSSHAMSWVRQAPGKGLEWVSAIWASGEQYYADSVKGRFTISRDNSKNTLYLQMNSLRAEDTAVYYCAKGWLGNFDYWGQGTLVTVSSASVAAPSVFIFPPSDEQLKSGTASVVCLLNNFYPREAKVQWKVDNALQSGNSQESVTEQDSKDSTYSLSSTLTLSKADYEKHKVYACEVTHQGLSSPVTKSFNRGEC			7.2 RU		
DR5(5E11)-28H1 VHCL 2 + 2 P329GLALA (bispecific antibody, human IgG1, kappa, L234A L235A, C-terminal lysine removed, L234A L235A P329G in Fc; also called DR5TAA-0057; format A) heavy: not shown light: EIVLTQSPGTLSLSPGERATLSCRASQSVSSSYLAWYQQKPGQAPRLLIYGASSRATGIPDRFSGSGSGTDFTLTISRLEPEDFAVYYCQQGTTHPITFGQGTKVEIKRTVAAPSVFIFPPSDEQLKSGTASVVCLLNNFYPREAKVQWKVDNALQSGNSQESVTEQDSKDSTYSLSSTLTLSKADYEKHKVYACEVTHQGLSSPVTKSFNRGEC EIVLTQSPGTLSLSPGERATLSCRASQSVSRSYLAWYQQKPGQAPRLLIIGASTRATGIPDRFSGSGSGTDFTLTISRLEPEDFAVYYCQQGQVIPPTFGQGTKVEIKSSASTKGPSVFPLAPSSKSTSGGTAALGCLVKDYFPEPVTVSWNSGALTSGVHTFPAVLQSSGLYSLSSVVTVPSSSLGTQTYICNVNHKPSNTKVDKKVEPKSCD		0.6 nM	40.8 RU	10 fold	
DR5TAA-0033 (bispecific antibody, human IgG1, kappa, also called 0011-28H1) heavy: not shown light: ADIVMTQTPASVSEPVGGTVTIKCQASQSISTYLSWYQQKPGQPPKRLIYKASTLASGVPSRFKGSGSGTDFTLTIRDLECADAATYYCQPNSGIATYGAAFGGGTEVVVKRTVAAPSVFIFPPSDEQLKSGTASVVCLLNNFYPREAKVQWKVDNALQSGNSQESVTEQDSKDSTYSLSSTLTLSKADYEKHKVYACEVTHQGLSSPVTKSFNRGEC EIVLTQSPGTLSLSPGERATLSCRASQSVSRSYLAWYQQKPGQAPRLLIIGASTRATGIPDRFSGSGSGTDFTLTISRLEPEDFAVYYCQQGQVIPPTFGQGTKVEIKSSASTKGPSVFPLAPSSKSTSGGTAALGCLVKDYFPEPVTVSWNSGALTSGVHTFPAVLQSSGLYSLSSVVTVPSSSLGTQTYICNVNHKPSNTKVDKKVEPKSCD		0.3 nM		10 fold	Avidity [5]: 0.1 nM; Avidity [6]: 3.72 nM; binding result [1]: binds; Kd [7]: 9.8 nM; Kd [8]: 20.2 nM
DR5TAA-0078 (bispecific antibody, also called format D) heavy: not shown EIVLTQSPGTLSLSPGERATLSCRASQSVSSSYLAWYQQKPGQAPRLLIYGASSRATGIPDRFSGSGSGTDFTLTISRLEPEDFAVYYCQQGTTHPITFGQGTKVEIKSSASTKGPSVFPLAPSSKSTSGGTAALGCLVKDYFPEPVTVSWNSGALTSGVHTFPAVLQSSGLYSLSSVVTVPSSSLGTQTYICNVNHKPSNTKVDKKVEPKSCD light: EIVLTQSPGTLSLSPGERATLSCRASQSVSRSYLAWYQQKPGQAPRLLIIGASTRATGIPDRFSGSGSGTDFTLTISRLEPEDFAVYYCQQGQVIPPTFGQGTKVEIKRTVAAPSVFIFPPSDEQLKSGTASVVCLLNNFYPREAKVQWKVDNALQSGNSQESVTEQDSKDSTYSLSSTLTLSKADYEKHKVYACEVTHQGLSSPVTKSFNRGEC			38.4 RU		
DR5TAA-0035 (bispecific antibody, human IgG1, kappa, also called 0016-28H1) heavy: not shown light: ADIVMTQTASPVSAAVGGTVTINCQASQSISSSYVSWYQQKPGQPPKLLIYKASTLASGVPSRFSGSGSGTQLSLTIRGVQCDDAATYYCLYGYSDVSSSEYVFGGGTEVVVRRTVAAPSVFIFPPSDEQLKSGTASVVCLLNNFYPREAKVQWKVDNALQSGNSQESVTEQDSKDSTYSLSSTLTLSKADYEKHKVYACEVTHQGLSSPVTKSFNRGEC EIVLTQSPGTLSLSPGERATLSCRASQSVSRSYLAWYQQKPGQAPRLLIIGASTRATGIPDRFSGSGSGTDFTLTISRLEPEDFAVYYCQQGQVIPPTFGQGTKVEIKSSASTKGPSVFPLAPSSKSTSGGTAALGCLVKDYFPEPVTVSWNSGALTSGVHTFPAVLQSSGLYSLSSVVTVPSSSLGTQTYICNVNHKPSNTKVDKKVEPKSCD		0.7 nM		10 fold	Avidity [5]: 0.08 nM; binding result [1]: binds; Kd [7]: 5.1 nM; Kd [8]: 2 nM

Second part, led by results:

binding result (human FAP on cells)	Avidity [3]	FAP [RU max] [4]	Binder	Cell Death Detection ELISA, DLD-1 cells with 3T3 cells expressing murine FAP [2]	further results
binds			Drozitumab-X-FAP_A (2 + 2) (bispecific antibody, human IgG1, lambda, 4G8 VH-CL fused to the C-terminus of the Drozitumab heavy chain; also called GA803_A01_E02A_014) heavy: not shown EIVLTQSPGTLSLSPGERATLSCRASQSVSRSYLAWYQQKPGQAPRLLIIGASTRATGIPDRFSGSGSGTDFTLTISRLEPEDFAVYYCQQGQVIPPTFGQGTKVEIKSSASTKGPSVFPLAPSSKSTSGGTAALGCLVKDYFPEPVTVSWNSGALTSGVHTFPAVLQSSGLYSLSSVVTVPSSSLGTQTYICNVNHKPSNTKVDKKVEPKSCD light: SELTQDPAVSVALGQTVRITCSGDSLRSYYASWYQQKPGQAPVLVIYGANNRPSGIPDRFSGSSSGNTASLTITGAQAEDEADYYCNSADSSGNHVVFGGGTKLTVLGQPKAAPSVTLFPPSSEELQANKATLVCLISDFYPGAVTVAWKADSSPVKAGVETTTPSKQSNNKYAASSYLSLTPEQWKSHRSYSCQVTHEGSTVEKTVAPTECS		binding result [9]: binds; binding result [10]: binds; binding result [11]: binds
binds			Drozitumab-X-FAP_B (2 + 2) (bispecific antibody, human IgG1, lambda, 4G8 VL-CH1 fused to the C-terminus of the Drozitumab heavy chain; also called GA803_A01_E02A_015) heavy: not shown not shown light: SELTQDPAVSVALGQTVRITCSGDSLRSYYASWYQQKPGQAPVLVIYGANNRPSGIPDRFSGSSSGNTASLTITGAQAEDEADYYCNSADSSGNHVVFGGGTKLTVLGQPKAAPSVTLFPPSSEELQANKATLVCLISDFYPGAVTVAWKADSSPVKAGVETTTPSKQSNNKYAASSYLSLTPEQWKSHRSYSCQVTHEGSTVEKTVAPTECS		binding result [12]: binds; binding result [13]: binds; binding result [14]: binds
binds			4G8_scFab_HC (bispecific antibody, human IgG1, kappa, lambda, also called GA803_A01_B02A_001; Drozitumab-scFab-FAP) heavy: not shown light: SELTQDPAVSVALGQTVRITCSGDSLRSYYASWYQQKPGQAPVLVIYGANNRPSGIPDRFSGSSSGNTASLTITGAQAEDEADYYCNSADSSGNHVVFGGGTKLTVLGQPKAAPSVTLFPPSSEELQANKATLVCLISDFYPGAVTVAWKADSSPVKAGVETTTPSKQSNNKYAASSYLSLTPEQWKSHRSYSCQVTHEGSTVEKTVAPTECS		
